Experimental data published in US20210095265A1 (WISCONSIN ALUMNI RESEARCH FOUNDATION, published 2021).

What was measured:
[1] = molecular target: T1, Saro_2873 S15A (subunit of BaeA variants 3:S15A and 2:S14A/3:S15A) (Novosphingobium aromaticivorans); test: gel permeation chromatography
T1 chain: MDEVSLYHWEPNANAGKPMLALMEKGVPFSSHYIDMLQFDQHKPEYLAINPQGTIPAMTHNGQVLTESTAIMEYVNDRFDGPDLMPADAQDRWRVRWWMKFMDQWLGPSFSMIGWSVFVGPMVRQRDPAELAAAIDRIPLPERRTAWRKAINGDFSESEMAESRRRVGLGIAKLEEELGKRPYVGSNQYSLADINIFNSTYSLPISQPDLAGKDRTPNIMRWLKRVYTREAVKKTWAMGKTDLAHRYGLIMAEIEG

[2] = molecular target: T2, Saro_2873 N14A (subunit of BaeA variant 3:N14A) (Novosphingobium aromaticivorans); test: gel permeation chromatography
T2 construct: This subunit is untagged; the tag is on Saro_2872
T2 chain: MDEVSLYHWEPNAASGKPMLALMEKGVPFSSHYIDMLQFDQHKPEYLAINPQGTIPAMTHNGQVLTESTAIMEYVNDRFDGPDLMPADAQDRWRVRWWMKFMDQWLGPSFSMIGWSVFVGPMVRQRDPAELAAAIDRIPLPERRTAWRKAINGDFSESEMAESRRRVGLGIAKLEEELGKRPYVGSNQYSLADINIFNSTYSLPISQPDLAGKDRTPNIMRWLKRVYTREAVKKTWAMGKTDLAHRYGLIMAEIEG

[3] = molecular target: T3, Saro_2873 polypeptide made by cell-free synthesis in its native form
T3 chain: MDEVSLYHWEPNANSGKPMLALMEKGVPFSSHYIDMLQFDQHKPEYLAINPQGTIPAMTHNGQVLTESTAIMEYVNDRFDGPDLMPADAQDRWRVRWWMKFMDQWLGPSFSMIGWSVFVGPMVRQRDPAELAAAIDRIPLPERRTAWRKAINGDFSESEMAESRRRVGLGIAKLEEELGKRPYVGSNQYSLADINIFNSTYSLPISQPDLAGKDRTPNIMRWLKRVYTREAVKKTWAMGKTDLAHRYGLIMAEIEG

[4] = molecular target: T4, Saro_2873 polypeptide from Novosphingobium aromaticivorans (subunit of BaeA), co-expressed with Saro_2872 in … (Novosphingobium aromaticivorans); test: gel permeation chromatography
T4 construct: Co-expressed with Saro_2872; also called Saro_2873 subunit; second polypeptide of BaeA
T4 chain: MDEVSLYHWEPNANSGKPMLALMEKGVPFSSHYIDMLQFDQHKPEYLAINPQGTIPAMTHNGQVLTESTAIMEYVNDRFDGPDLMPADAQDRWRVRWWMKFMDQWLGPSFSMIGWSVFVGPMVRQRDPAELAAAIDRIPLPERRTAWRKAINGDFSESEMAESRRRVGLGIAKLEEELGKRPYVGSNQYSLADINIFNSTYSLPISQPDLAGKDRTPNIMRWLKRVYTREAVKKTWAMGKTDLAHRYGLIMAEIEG

[5] = molecular target: the molecule itself; test: X-ray crystal structures (pdb 5uuo, 5uun); two copies of the protein per asymmetric unit
Text: Diffraction data were obtained at the GM/CA beam-line at Argonne National Laboratory with an Eiger 16M detector (Casanas et al. 2016). Data were collected on the ammonium acetate and ammonium sulfate crystal forms using 1.033 Å (for 1.45 Å resolution) or 0.7749 Å (for 1.25 Å resolution) X-rays, respectively. Diffraction data were reduced using XDS (Kabsch 2010). Both crystals belonged to space group P2₁2₁2₁ with a predicted solvent content of 60%. The structure was solved by molecular replacement with Phaser (McCoy et al. 2007) in the Phenix suite (Adams et al. 2010), using a search model based on PDB ID 3C8E:A (ecYghU (Stourman et al. 2011)) modified with phenix.sculptor (Bunkóczi et al. 2011), based on primary sequence alignment. […] Phenix.refine (Afonine et al. 2012) and COOT (Emsley et al. 2004) were alternatively used to refine the structure and fit the model to electron density maps.

B1: Saro_2872 polypeptide from Novosphingobium aromaticivorans (subunit of BaeA), co-expressed with Saro_2873 in E. coli (enzyme)
chain: MSALLYHGEPNGASLTVLAALAETGLDIECRRIDLLAGERHSLPGIVDPVALDLSIEGEGPVLVIDGEAMTESVFLAQYLDEAAGGVGLQPTDAYARWEMMMWCRQITERLSPAAALLGNLATSQSAIAAIPAEDFAILAARIVSDDLRERWQALNDDAVNAAQVADSETKVAAAVDRCEKQLGDGREWLMGTFSIADLVTYSWLAGMEPLRPAAFADAPLVKAWLARTAARPCVQAALARATISEPLRAWAPGPEINRWG
notes: Co-expressed with Saro_2873 from one pVP302K vector; In the H2872 construct Saro_2872 lacks its native start codon; also called Saro_2872 subunit; first polypeptide of BaeA
[1]
  binding result: binds
[2]
  binding result: binds
[3]
  conversion of racemic MPHPV into GS-HPV and guaiacol (HPLC): half of the MPHPV was converted into GS-HPV and guaiacol

B2: Saro_2872 S14A (subunit of BaeA variants 2:S14A and 2:S14A/3:S15A) (enzyme)
chain: MSALLYHGEPNGAALTVLAALAETGLDIECRRIDLLAGERHSLPGIVDPVALDLSIEGEGPVLVIDGEAMTESVFLAQYLDEAAGGVGLQPTDAYARWEMMMWCRQITERLSPAAALLGNLATSQSAIAAIPAEDFAILAARIVSDDLRERWQALNDDAVNAAQVADSETKVAAAVDRCEKQLGDGREWLMGTFSIADLVTYSWLAGMEPLRPAAFADAPLVKAWLARTAARPCVQAALARATISEPLRAWAPGPEINRWG
notes: The N-terminal His8-tag and Tev site are on this subunit, and its native start codon is missing; also called H2872(S14A)
[1]
  binding result: binds
[4]
  binding result: binds

B3: recombinant NaGSTNu (Nu-class glutathione-S-transferase of Novosphingobium aromaticivorans DSM 12444, Saro_2595), one subunit (enzyme)
chain: SAIAGMSSEYVPPKVWKWDKANGGAFASVNRPVAGPTSERELPVGKHPFQVYSLGTPNGQKATIMLEELLQLGFSEAEYDAWLIKIFEGDQFTSGFVDINPNSKIPAMVDRSGPEPFRVFESGAILMHLAEKFGVFLPTSGPARAECLSWLFWQVGSAPFIGGGFGHFYNYAPIKIEYAIDRYAMETKRLFDVANRRLAESRYLAGDEYTIADLATYTWFGNIYRGEAYGEAATFLSMHEYEHVGRWVGEIDARPGVLRGRLVNSSKGLAERHDASDFDALPPESLQAIVKGF
notes: also called Saro_2595 product; pdb 5uuo
[5]
  binding result: binds
